This note sets out measurements from publication PMC3089553 (The Journal of Biological Chemistry, 2011).

The target in this assay is T1, His-CTNNBL1(Δ1–76) (UniProt Q8WYA6 77-563).
T1 sequence (looked up): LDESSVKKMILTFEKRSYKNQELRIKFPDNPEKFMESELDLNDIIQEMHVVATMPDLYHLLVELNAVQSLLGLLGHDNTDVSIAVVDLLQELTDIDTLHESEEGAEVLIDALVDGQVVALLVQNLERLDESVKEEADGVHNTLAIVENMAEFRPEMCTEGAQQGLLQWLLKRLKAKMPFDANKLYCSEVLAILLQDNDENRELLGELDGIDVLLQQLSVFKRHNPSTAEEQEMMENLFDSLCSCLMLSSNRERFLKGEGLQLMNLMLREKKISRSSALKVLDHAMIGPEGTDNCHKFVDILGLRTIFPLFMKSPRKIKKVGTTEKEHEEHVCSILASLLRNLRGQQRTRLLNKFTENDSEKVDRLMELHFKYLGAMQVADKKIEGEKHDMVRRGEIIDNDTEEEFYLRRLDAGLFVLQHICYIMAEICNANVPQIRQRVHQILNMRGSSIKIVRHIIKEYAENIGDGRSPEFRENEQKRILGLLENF
Kind of assay: ITC. For orientation: Isothermal titration calorimetry measures the heat released or taken up as one component is titrated into another.

B1: CDC5L NLS3 peptide (peptide)
peptide: KKRKRKR
In the case of B1, the “dH1 (site 1)” value was -1.48 ± 0.11 kcal/mol and the “dH2 (site 2)” value was -3.28 ± 0.15 kcal/mol.
